Source: PMC9482650, “Quantitative fragmentomics allow affinity mapping of interactomes” (Nature Communications, 2022)

T1: ARHGAP21, Q5T5U3
T1 sequence (Q5T5U3 45-169, limits assumed, looked up): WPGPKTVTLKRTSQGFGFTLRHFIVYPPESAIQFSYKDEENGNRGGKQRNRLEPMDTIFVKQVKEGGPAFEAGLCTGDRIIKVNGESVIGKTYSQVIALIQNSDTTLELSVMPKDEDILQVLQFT

T2: ARHGEF11, O15085
T2 sequence (O15085 42-136, limits assumed, looked up): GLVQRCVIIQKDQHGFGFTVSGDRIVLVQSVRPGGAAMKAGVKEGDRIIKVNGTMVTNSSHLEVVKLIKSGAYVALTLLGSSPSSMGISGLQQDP

T3: DFNB31_3, Q9P202
T3 sequence (Q9P202 811-907, limits assumed, looked up): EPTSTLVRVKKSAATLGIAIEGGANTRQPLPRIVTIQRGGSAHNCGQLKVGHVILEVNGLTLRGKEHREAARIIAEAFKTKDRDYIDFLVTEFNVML

T4: GRIP1_2, Q9Y3R0
T4 sequence (Q9Y3R0 145-248, limits assumed, looked up): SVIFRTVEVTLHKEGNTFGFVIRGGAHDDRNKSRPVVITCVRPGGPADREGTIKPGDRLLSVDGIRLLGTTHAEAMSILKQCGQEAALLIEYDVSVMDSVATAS

T5: GRIP1_7, Q9Y3R0
T5 sequence (Q9Y3R0 999-1096, limits assumed, looked up): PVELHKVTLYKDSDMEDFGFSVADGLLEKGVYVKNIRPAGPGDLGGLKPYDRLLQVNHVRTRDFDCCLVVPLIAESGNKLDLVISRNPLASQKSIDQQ

T6: LNX2_3, Q8N448
T6 sequence (Q8N448 463-564, limits assumed, looked up): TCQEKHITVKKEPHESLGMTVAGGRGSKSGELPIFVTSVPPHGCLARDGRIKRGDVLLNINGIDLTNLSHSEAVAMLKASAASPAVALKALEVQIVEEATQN

T7: MPDZ_10, O75970
T7 sequence (O75970 1624-1722, limits assumed, looked up): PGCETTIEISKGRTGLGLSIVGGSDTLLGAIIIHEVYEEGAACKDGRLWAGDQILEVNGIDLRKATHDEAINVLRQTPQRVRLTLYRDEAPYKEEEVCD

T8: MPDZ_12, O75970
T8 sequence (O75970 1857-1958, limits assumed, looked up): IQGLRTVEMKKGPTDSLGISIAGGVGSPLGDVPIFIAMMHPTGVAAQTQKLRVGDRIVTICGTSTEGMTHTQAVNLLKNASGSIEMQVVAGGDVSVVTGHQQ

T9: NHERF3_4, Q5T2W1
T9 sequence (Q5T2W1 373-468, limits assumed, looked up): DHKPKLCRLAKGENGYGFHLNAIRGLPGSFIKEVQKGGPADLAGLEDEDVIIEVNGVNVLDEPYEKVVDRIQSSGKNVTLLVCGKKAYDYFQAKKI

T10: PARD3B_1, Q8TEW8
T10 sequence (Q8TEW8 196-299, limits assumed, looked up): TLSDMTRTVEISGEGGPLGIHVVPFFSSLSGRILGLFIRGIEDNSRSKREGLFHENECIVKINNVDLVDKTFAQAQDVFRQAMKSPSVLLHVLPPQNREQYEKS

T11: PCLO, Q9Y6V0
T11 sequence (Q9Y6V0 4491-4600, limits assumed, looked up): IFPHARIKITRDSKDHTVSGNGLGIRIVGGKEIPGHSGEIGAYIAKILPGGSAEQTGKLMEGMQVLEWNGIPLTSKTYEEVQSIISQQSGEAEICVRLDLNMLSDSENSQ

T12: SIPA1L2, Q9P2F8
T12 sequence (Q9P2F8 945-1036, limits assumed, looked up): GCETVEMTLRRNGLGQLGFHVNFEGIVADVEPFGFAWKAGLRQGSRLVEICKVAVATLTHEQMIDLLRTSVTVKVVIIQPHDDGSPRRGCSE

T13: SNTB1, Q13884
T13 sequence (Q13884 107-205, limits assumed, looked up): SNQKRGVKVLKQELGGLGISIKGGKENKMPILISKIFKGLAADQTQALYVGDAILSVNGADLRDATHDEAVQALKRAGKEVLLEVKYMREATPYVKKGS


Assays:
Experiment in all cases: holdup assay
Set-up in all cases: key: below the threshold = too weak to quantify, mostly under pKd 3.1 to 4
Settings in all cases: plain residues with an end cap or a label only (N-terminal biotin on a linker: ado-ado)
ARHGAP21, Q5T5U3 = molecular target: T1, ARHGAP21, Q5T5U3
ARHGEF11, O15085 = molecular target: T2, ARHGEF11, O15085
DFNB31_3, Q9P202 = molecular target: T3, DFNB31_3, Q9P202
DLG4_2, P78352 = molecular target: DLG4_2, P78352
FRMPD2_1, Q68DX3 = molecular target: FRMPD2_1, Q68DX3
GRIP1_2, Q9Y3R0 = molecular target: T4, GRIP1_2, Q9Y3R0
GRIP1_7, Q9Y3R0 = molecular target: T5, GRIP1_7, Q9Y3R0
GRIP2_5, Q9C0E4 = molecular target: GRIP2_5, Q9C0E4
IL16_3, Q14005 = molecular target: IL16_3, Q14005
IL16_4, Q14005 = molecular target: IL16_4, Q14005
Inadl_3, Q8NI35 = molecular target: Inadl_3, Q8NI35
LAP2, Q96RT1 = molecular target: LAP2, Q96RT1
LNX1_3, Q8TBB1 = molecular target: LNX1_3, Q8TBB1
LNX2_3, Q8N448 = molecular target: T6, LNX2_3, Q8N448
MAGI2_3, Q86UL8 = molecular target: MAGI2_3, Q86UL8
MAGI2_6, Q86UL8 = molecular target: MAGI2_6, Q86UL8
MAST1, Q9Y2H9 = molecular target: MAST1, Q9Y2H9
MPDZ_10, O75970 = molecular target: T7, MPDZ_10, O75970
MPDZ_12, O75970 = molecular target: T8, MPDZ_12, O75970
NHERF3_4, Q5T2W1 = molecular target: T9, NHERF3_4, Q5T2W1
PARD3B_1, Q8TEW8 = molecular target: T10, PARD3B_1, Q8TEW8
PCLO, Q9Y6V0 = molecular target: T11, PCLO, Q9Y6V0
SIPA1L2, Q9P2F8 = molecular target: T12, SIPA1L2, Q9P2F8
SNTB1, Q13884 = molecular target: T13, SNTB1, Q13884

Sequence of Inadl_3, Q8NI35 (Q8NI35 359-469): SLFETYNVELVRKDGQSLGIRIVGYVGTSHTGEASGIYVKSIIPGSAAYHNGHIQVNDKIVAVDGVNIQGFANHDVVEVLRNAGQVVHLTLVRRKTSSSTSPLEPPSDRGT
Sequence of FRMPD2_1, Q68DX3 (Q68DX3 770-861): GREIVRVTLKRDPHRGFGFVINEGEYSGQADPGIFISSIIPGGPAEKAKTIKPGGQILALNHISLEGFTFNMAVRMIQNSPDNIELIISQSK
Sequence of IL16_3, Q14005 (Q14005 1107-1207): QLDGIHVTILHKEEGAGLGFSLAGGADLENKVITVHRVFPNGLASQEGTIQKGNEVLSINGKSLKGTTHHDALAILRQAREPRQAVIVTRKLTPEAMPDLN
Sequence of LAP2, Q96RT1 (Q96RT1 other isoform, or with tags, fused parts or gaps): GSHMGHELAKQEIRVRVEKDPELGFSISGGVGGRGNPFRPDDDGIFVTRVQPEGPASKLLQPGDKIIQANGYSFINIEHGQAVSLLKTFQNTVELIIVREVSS
Sequence of MAGI2_3, Q86UL8 (Q86UL8 600-682): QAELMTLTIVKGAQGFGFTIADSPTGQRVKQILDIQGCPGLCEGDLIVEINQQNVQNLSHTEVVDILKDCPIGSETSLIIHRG
Sequence of IL16_4, Q14005 (Q14005 1229-1329): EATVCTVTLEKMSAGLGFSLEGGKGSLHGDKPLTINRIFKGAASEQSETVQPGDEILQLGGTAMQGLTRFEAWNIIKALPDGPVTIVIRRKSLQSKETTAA
Sequence of GRIP2_5, Q9C0E4 (Q9C0E4 544-642): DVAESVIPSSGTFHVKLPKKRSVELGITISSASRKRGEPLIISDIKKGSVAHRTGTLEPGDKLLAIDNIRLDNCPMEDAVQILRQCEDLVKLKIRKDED
Sequence of DLG4_2, P78352 (P78352 155-259): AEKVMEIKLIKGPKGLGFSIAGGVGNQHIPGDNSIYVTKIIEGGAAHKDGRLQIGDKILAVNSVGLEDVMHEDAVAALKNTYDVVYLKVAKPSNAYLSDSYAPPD
Sequence of LNX1_3, Q8TBB1 (Q8TBB1 500-596): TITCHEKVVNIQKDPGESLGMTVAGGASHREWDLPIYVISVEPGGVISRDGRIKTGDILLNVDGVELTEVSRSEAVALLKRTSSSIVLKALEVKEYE
Sequence of MAGI2_6, Q86UL8 (Q86UL8 1141-1229): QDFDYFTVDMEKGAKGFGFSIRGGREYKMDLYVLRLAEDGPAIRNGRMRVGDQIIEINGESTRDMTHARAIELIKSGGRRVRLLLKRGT
Sequence of MAST1, Q9Y2H9 (Q9Y2H9 962-1065): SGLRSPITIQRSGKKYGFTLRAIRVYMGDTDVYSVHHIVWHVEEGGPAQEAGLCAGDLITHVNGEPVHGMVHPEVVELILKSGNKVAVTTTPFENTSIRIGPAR

Row | Binder | pKd (ARHGAP21, Q5T5U3) | pKd (ARHGEF11, O15085) | pKd (DFNB31_3, Q9P202) | pKd (DLG4_2, P78352) | pKd (FRMPD2_1, Q68DX3) | pKd (GRIP1_2, Q9Y3R0) | pKd (GRIP1_7, Q9Y3R0) | pKd (GRIP2_5, Q9C0E4) | pKd (IL16_3, Q14005) | pKd (IL16_4, Q14005) | pKd (Inadl_3, Q8NI35) | pKd (LAP2, Q96RT1) | pKd (LNX1_3, Q8TBB1) | pKd (LNX2_3, Q8N448) | pKd (MAGI2_3, Q86UL8) | pKd (MAGI2_6, Q86UL8) | pKd (MAST1, Q9Y2H9) | pKd (MPDZ_10, O75970) | pKd (MPDZ_12, O75970) | pKd (NHERF3_4, Q5T2W1) | other results
1 | EPQYQPGENL [SRC, P12931] | 4 | below the threshold | below the threshold | below the threshold | below the threshold | below the threshold | below the threshold | below the threshold | below the threshold | 3.5 | below the threshold | below the threshold | below the threshold | below the threshold | below the threshold | 3.84 | 4.18 | below the threshold | below the threshold | below the threshold | pKd (PARD3B_1, Q8TEW8): 3.91; pKd (PCLO, Q9Y6V0): below the threshold; pKd (SIPA1L2, Q9P2F8): below the threshold; pKd (SNTB1, Q13884): 3.58
2 | GTGYDRKDYV [CLDN3, O15551] | 3.83 | 3.9 | 4.06 | 3.63 | below the threshold | below the threshold | below the threshold | below the threshold | below the threshold | 3.73 | below the threshold | below the threshold | 3.49 | below the threshold | 3.48 | 3.52 | 4.03 | 3.51 | below the threshold | below the threshold | pKd (PARD3B_1, Q8TEW8): 3.51; pKd (PCLO, Q9Y6V0): below the threshold; pKd (SIPA1L2, Q9P2F8): below the threshold; pKd (SNTB1, Q13884): below the threshold
3 | DGVNEKVSCV [HTR2A, P28223] | below the threshold | 4.18 | 3.88 | 4.74 | below the threshold | below the threshold | below the threshold | below the threshold | below the threshold | 3.56 | below the threshold | below the threshold | below the threshold | below the threshold | 4.72 | 4.47 | 3.65 | 4.19 | below the threshold | below the threshold | pKd (PARD3B_1, Q8TEW8): below the threshold; pKd (PCLO, Q9Y6V0): below the threshold; pKd (SIPA1L2, Q9P2F8): below the threshold; pKd (SNTB1, Q13884): 4.72
